Reference: patent JP2007302676A (dated 2007)
Positions count from the first letter of the chain named. In names and notes the source's numbering stands.

B1: hu504.32 (Fab) (Fab, V domains shown)
VH: EVQLVESGGGLVQPGGSLRLSCAASGFFITNNYWGWVRQAPGKGLEWVGYISYSGSTSYNPSLKSRFTISRDTSKNTFYLQMNSLRAEDTAVYYCAMTGSSGYFDFWGQGTLVTVSS
VL: DIQMTQSPSSLSASVGDRVTITCRASESVDDLLHWYQQKPGKAPKLLIKYASQSISGVPSRFSGSGSGTDFTLTISSLQPEDFATYYCQQGNSLPNTFGQGTKVEIKR
B2: Fib504Kグラフト (HVR graft with light chain Y49K, Fab displayed on phage) (Fab, V domains shown)
VH: B1 VH with R71A, F78A
VL: B1 VL with D31T, L32Y
notes: also called hu504Kグラフト; ヒト化504Kグラフト
B3: Fib504グラフト (direct HVR graft, Fab displayed on phage) (Fab, V domains shown)
VH: B1 VH with R71A, F78A
VL: B1 VL with D31T, L32Y, K49Y
notes: Tested as monovalent Fab-g3 on phage (VH-CH1 fused to truncated P3); also called hu504グラフト; ヒト化抗体504グラフト

Assays:
[1] = target: 全長ヒトインテグリンアルファ4ベータ7 (expressed in 293 cells, purified by Fib504 affinity chromatography) (human) (UniProt P13612); assay: Biacore SPR, Fab immobilised on CM5, alpha4beta7 injected (summary of Table 3)
[2] = target: T1, 全長ヒトインテグリンアルファ4ベータ7 (expressed in 293 cells, purified by Fib504 affinity chromatography) (human, UniProt P13612 34-1032; P26010 20-798); assay: phage-displayed Fab on immobilised human alpha4beta7
T1 construct: mature; also called 固定化アルファ4ベータ7; α4β7

Binder	fold tighter binding relative to the starting rat antibody [1] [fold]	binding result [2]
B1	3	–
B2	–	no binding
B3	–	no binding
